Assay results from patent US20230331852A1 (OSE IMMUNOTHERAPEUTICS, published 2023).

What was measured:
[1] = biological target: T1, recombinant human CLEC-1 protein with His Tag (#1704-CL R&D Systems) (human, UniProt Q8NC01 74-280); test: ELISA on immobilised His-CLEC1 (from FIGURE 12)
T1 construct: Bought protein; also called His-CLEC1; His Clec-1; not shown: His tag
T1 sequence: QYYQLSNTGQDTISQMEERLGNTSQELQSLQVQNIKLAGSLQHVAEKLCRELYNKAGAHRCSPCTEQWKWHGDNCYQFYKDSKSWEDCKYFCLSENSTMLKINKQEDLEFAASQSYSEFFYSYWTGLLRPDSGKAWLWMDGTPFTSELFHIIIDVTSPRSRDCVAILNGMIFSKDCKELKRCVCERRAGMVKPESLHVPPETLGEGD
Method: Method: The binding activity of the anti-hCLEC1 antibodies was assessed by ELISA (Enzyme-linked immunosorbent assay). […] A second ELISA assays was performed, like above, with immobilization of CLEC1-Fc (OSE Immunotherapeutics) at 2 μg/ml. A third ELISA assays was performed to see the cross-reactivity with mouse CLEC1. Like above, ELISA was made with immobilization of mouse Fc-CLEC1 (OSE Immunotherapeutics) at 2 μg/ml in carbonate buffer instead of His-Clec. Purified antibodies were added at different concentrations to measure binding. […] Control antibody is a commercial anti-CLEC-1A antibody.

[2] = biological target: T2, human CLEC-1A expressed on the cell membrane (human, UniProt Q8NC01 1-280); test: flow cytometry on CHO-Clec-1 cells (from FIGURE 21)
T2 construct: Endogenous on human U266 myeloma cells, on monocyte-derived TGFb-DC and macrophages; on CHO cells after transduction with a Clec-1 expressing lentivirus; also called U266 CLEC1; CLEC-1A on U266 cells
T2 sequence: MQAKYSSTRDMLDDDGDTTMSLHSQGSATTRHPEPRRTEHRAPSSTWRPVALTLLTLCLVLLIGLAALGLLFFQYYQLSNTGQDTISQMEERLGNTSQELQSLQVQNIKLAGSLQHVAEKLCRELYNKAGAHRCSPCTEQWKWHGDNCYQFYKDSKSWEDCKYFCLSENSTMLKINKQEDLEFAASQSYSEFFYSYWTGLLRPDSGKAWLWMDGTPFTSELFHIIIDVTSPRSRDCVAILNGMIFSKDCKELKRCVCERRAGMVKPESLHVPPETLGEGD
Method: To measure binding of anti-clec on CHO-Clec-1 cells, human Fc Receptor Binding Inhibitor diluted at 1/200 (BD pharmingen; USA; reference 564220) was first added for 30 min at room-temperature to block human Fc receptors on CHO-Clec-1 cells to reduce background. Then, antibodies were incubated for 30 min at 4° C., and washed before stained 15 min at 4° C. with PE-labelled anti-human IgG Fc (Biolegend; USA; reference 409303). Samples were analyzed on citoflex (Beckman coulter)

[3] = biological target: T1, recombinant human CLEC-1 protein with …; test: BLI (Blitz), CLEC1-His on Ni-NTA biosensor, antibody at 20 ug/mL; chimeric antibody, FIG. 17
Method: Analysis was performed with a BLItz System (Fortébio, #C22-2 No 61010-1, Molecular Devices, San José, USA).
The affinity of the anti-hCLEC1 antibodies, was measured with Blitz system (Forté Bio, C22-2 No 61010-1).

EC50 [1]: 0.148 µg/mL | EC50 [2]: 0.895 µg/mL | Kd [3]: ~10 nM
B1: chimeric anti-CLEC-1A antibody 14H9 (antibody, human IgG4 S228P, kappa, V domains shown)
VH: QVQLKESGPGLVAPSQSLSITCTISGFSLTTYGIHWVRQPPGKGLEWLVVIWSDGSTIYNSALKSRLSISKDNSKSQVFLKMNSLQTDDTAIYYCARHGGYYNYFDYWGQGTTLTVSS
VL: DIQMNQSPSSLSASLGDTITITCHASQNINVWLSWYQQKPGNIPKLLIYKASNLHTGVPSRFSGSGSGTTFTLTIDSLQPEDIATYYCQQGQSYWTFGGGTKLEIKR
notes: also called 14H9chim; 14H9-VHwt-FcG4m / 14H9-VLwt-CLhk
